This test has as its target HIV-1 Env variant ADA.CM, trimer on virions (HIV-1 (ADA.CM)).

Substance 4E10 Fab (parental, wild-type) had an IC50 of neutralization of ADA.CM pseudovirus, TZM-bl assay of 2.7 µg/mL.

Values taken from paper PMC8413895.
